Kd data for one substance are collected here from patent US20220227846A1.

Common to all, as to assay: SPR, calculated KD (Qdat software)
One assay has as its target Aβ42 fibrils (UniProt P05067).
In assay [1] the target is Aβ42 oligomers (ADDLs/globulomers) (UniProt P05067).
Assay [2] concerns the target C-terminal biotinylated Aβ42 ADDLs/globulomers (UniProt P05067).
The target in assay [3] is C-terminal biotinylated Aβ42 monomers (UniProt P05067).
Assay [4] has as its target N-terminal biotinylated Aβ42 monomers (UniProt P05067).

Sequence of Aβ42 fibrils (P05067 672-713 limits assumed): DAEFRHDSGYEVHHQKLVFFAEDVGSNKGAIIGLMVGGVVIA
Sequence of Aβ42 oligomers (ADDLs/globulomers) (P05067 672-713 limits assumed): as above
Sequence of C-terminal biotinylated Aβ42 monomers (P05067 672-713 limits assumed): as above
Sequence of C-terminal biotinylated Aβ42 ADDLs/globulomers (P05067 672-713 limits assumed): as above
Sequence of N-terminal biotinylated Aβ42 monomers (P05067 672-713 limits assumed): as above

“6E10 (mouse mAb to Aβ amino acids 1-16; BioLegend, San Diego, CA) (antibody)”: the Kd with Aβ42 fibrils is 56 nM; in assay [1] it was 69 nM; in assay [2], 50 nM; in assay [3] it was 47 nM; in assay [4], 158 nM.
